Experimental data as given in patent EP4741420A1, “PHARMACEUTICAL COMPOSITION FOR PREVENTING OR TREATING OBESITY COMPRISING GLP ANALOGUE AS ACTIVE INGREDIENT” (priority 2023, dated 2025).
Like-named read-outs stand apart in the source and are kept apart here. Ends that are not written are not given here. Peptide text beside a SMILES is read from it. * marks the point of attachment. Palmitoyl = CCCCCCCCCCCCCCCC(=O)*

Experiments:
C57BL/6 DIO mice [1] = assay: Diet-induced obesity mouse model: blood/serum biochemical tests (Example 3); assay type: in vivo; conditions: after 4 weeks, 0.20 mg/kg/dose (dose from Table 3)
Method: Here, the body weight and food intake were measured daily.
In addition, after the experiment was completed, blood and serum samples were obtained from each mouse model, and biochemical tests were performed for blood glucose, total cholesterol, high-density lipoprotein (HDL), low-density lipoprotein (LDL), and triglycerides.

C57BL/6 DIO mice [2] = assay: Diet-induced obesity mouse model: body weight and food intake (Example 3); assay type: in vivo; conditions: 4 weeks administration, 0.20 mg/kg/dose
[3] = Mouse PK after single subcutaneous administration, LC-MS/MS of plasma; assay type: in vivo, mice
Method: Each of the experimental groups and the control was subcutaneously administered once to the dorsal area of a total of 12 mice using a 1 mL syringe equipped with a 26-gauge needle at a dose of 0.2 mg/5 mL/kg. After drug administration, approximately 0.04 to 0.05 mL of blood was collected per individual at the time scheduled for the orbital vein (4 mice were alternately sampled), and the blood collection times were 1, 2, 4, 8, 24 ,32 ,48, 56, 72, 96, and 120 hours. All plasma samples were analyzed using a self-developed LC-MS/MS assay. Pharmacokinetic analysis of blood drugs was performed using non-compartmental analysis, and analysis of pharmacokinetic parameters was performed using Phoenix WinNolin 64 (Version. 8.3.5 340).

GLP-2 = molecular target: T1, GLP-2 (Homo sapiens, UniProt O95838); assay: GLP-2 activity, cell-based cAMP assay (same method as Example 2); conditions: for GLP-2 activity Compared to GLP-2: Example 5, relative to GLP-2; for EC50: Example 5
T1 sequence (O95838 1-553): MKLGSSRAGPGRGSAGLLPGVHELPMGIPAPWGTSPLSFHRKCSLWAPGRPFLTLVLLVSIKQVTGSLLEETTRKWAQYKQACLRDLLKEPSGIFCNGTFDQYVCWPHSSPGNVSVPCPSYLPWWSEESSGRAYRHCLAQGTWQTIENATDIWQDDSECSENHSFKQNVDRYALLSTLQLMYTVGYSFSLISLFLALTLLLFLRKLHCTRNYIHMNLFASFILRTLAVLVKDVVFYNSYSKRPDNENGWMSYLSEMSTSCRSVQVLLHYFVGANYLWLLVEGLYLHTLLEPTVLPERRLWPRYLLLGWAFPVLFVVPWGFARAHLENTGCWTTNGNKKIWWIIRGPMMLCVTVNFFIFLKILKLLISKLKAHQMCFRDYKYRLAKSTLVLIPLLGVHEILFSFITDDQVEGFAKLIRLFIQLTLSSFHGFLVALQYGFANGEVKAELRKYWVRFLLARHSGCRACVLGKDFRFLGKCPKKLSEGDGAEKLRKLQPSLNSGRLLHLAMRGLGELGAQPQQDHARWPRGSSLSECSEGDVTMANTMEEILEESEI

GLP-1R = GLP-1R (Homo sapiens, UniProt P43220); assay: GLP-1 activation: cell-based cAMP assay in GLP-1R/CHO cells; conditions: Example 5, relative to Exendin-4
Chain of GLP-1R (P43220 24-463): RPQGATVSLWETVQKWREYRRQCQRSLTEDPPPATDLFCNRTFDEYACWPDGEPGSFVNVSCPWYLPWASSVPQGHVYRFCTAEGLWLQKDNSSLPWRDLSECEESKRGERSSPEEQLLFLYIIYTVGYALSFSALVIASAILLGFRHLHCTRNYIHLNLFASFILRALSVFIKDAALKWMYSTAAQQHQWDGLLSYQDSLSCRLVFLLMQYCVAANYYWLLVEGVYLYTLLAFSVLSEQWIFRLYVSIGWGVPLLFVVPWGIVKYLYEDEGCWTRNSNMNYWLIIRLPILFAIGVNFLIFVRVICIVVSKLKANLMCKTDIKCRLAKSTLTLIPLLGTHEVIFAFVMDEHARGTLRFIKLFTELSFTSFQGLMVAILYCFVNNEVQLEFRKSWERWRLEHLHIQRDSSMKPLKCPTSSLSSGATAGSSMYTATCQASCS

[4] = in vivo; cited from earlier work
[5] = molecular target: GLP-1R (on GLP-1R/CHO cells, DiscoverX 95-0062C2) (UniProt P43220); assay: cell-based or functional assay
Chain of GLP-1R (on GLP-1R/CHO cells, DiscoverX 95-0062C2) (UniProt P43220) (P43220 24-463 limits assumed): as the sequence (P43220 24-463) above

[6] = molecular target: T2, GLP-1R (on GLP-1R/CHO cells, DiscoverX 95-0062C2) (UniProt P43220 24-463); assay: cell-based or functional assay
T2 sequence (P43220 24-463 limits assumed): as the sequence (P43220 24-463) above

[7] = molecular target: T2, GLP-1R (on GLP-1R/CHO cells, DiscoverX …); assay: cell-based or functional assay; remark: listed apart in the source
[8] = C57BL/6N male mice, single subcutaneous dose 0.2 mg/5 mL/kg, plasma
[9] = male, C57BL/6N, mouse, in vivo, sc

## CCCCCCCCCCCCCCCC(=O)N[C@@H](CCC(=O)NCCCC[C@H](NC(=O)[C@H](C)NC(=O)[C@H](C)NC(=O)[C@H](CCC(N)=O)NC(=O)CNC(=O)[C@H](CCC(=O)O)NC(=O)[C@H](CC(C)C)NC(=O)[C@H](Cc1ccc(O)cc1)NC(=O)[C@H](CO)NC(=O)[C@H](CO)NC(=O)[C@@H](NC(=O)[C@H](CC(=O)O)NC(=O)[C@H](CO)NC(=O)[C@@H](NC(=O)[C@H](Cc1ccccc1)NC(=O)[C@@H](NC(=O)CNC(=O)[C@H](CCC(=O)O)NC(=O)[C@H](C)NC(=O)[C@@H](N)Cc1c[nH]cn1)[C@@H](C)O)[C@@H](C)O)C(C)C)C(=O)N[C@@H](CCC(=O)O)C(=O)N[C@@H](Cc1ccccc1)C(=O)N[C@H](C(=O)N[C@@H](C)C(=O)N[C@@H](Cc1c[nH]c2ccccc12)C(=O)N[C@@H](CC(C)C)C(=O)N[C@H](C(=O)N[C@@H](CCCNC(=N)N)C(=O)NCC(=O)N[C@@H](CCCNC(=N)N)C(=O)NCC(=O)O)C(C)C)[C@@H](C)CC)C(=O)O [Liraglutide, reference compound]
C57BL/6 DIO mice [1]
  Blood glucose: 209.2 ± 26.7 mg/dL
  High-density lipoprotein: 74.7 ± 2.6 mg/dL
  Low-density lipoprotein: 9.7 ± 3.3 mg/dL
  Triglyceride: 9.6 ± 0.8 mg/dL
C57BL/6 DIO mice [2]
  Cumulative food intake: 58.5 ± 2.5 g
  Weight: 40.1 ± 4.9 g

## HGEGTFTSDLSTYLDALAAC(+mPEG)DFINWLIQTKITDKK(+C16 FA) (HGEGTFTSDLSTYLDALAAC(mPEG 3.4 kDa)DFINWLIQTKITDKK(C16 fatty acid)) [HU020M6, 3.4kDa maleimidated PEG conjugated to cysteine at position 20, C16 fatty acid]
[3]; [8]
  AUClast: 6508.0 ng·h/mL
  Cmax: 433.6 ng/mL
  T1/2: 7.0 h
  Tmax: 8.0 h
GLP-2
  GLP-2 activity Compared to GLP-2: ~ 0.02%
GLP-2; read-out: GLP-2 activity (EC50)
  EC50: > 10000 nM

## CC[C@H](C)[C@H](NC(=O)[C@H](Cc1ccccc1)NC(=O)[C@H](CC(=O)O)NC(=O)[C@H](CCCNC(=N)N)NC(=O)[C@H](C)NC(=O)[C@H](C)NC(=O)[C@H](CC(C)C)NC(=O)[C@H](C)NC(=O)[C@H](CC(=O)O)NC(=O)[C@H](CC(C)C)NC(=O)[C@H](Cc1ccc(O)cc1)NC(=O)[C@@H](NC(=O)[C@H](CO)NC(=O)[C@H](CC(C)C)NC(=O)[C@H](CC(=O)O)NC(=O)[C@H](CO)NC(=O)[C@@H](NC(=O)[C@H](Cc1ccccc1)NC(=O)[C@@H](NC(=O)CNC(=O)[C@H](CCC(=O)O)NC(=O)CNC(=O)[C@@H](N)Cc1c[nH]cn1)[C@@H](C)O)[C@@H](C)O)[C@@H](C)O)C(=O)N[C@@H](CC(N)=O)C(=O)N[C@@H](Cc1c[nH]c2ccccc12)C(=O)N[C@@H](CC(C)C)C(=O)N[C@H](C(=O)N[C@@H](CCC(N)=O)C(=O)N[C@H](C(=O)N[C@@H](CCCCN)C(=O)N[C@H](C(=O)N[C@H](C(=O)N[C@@H](CC(=O)O)C(=O)N[C@@H](CCCCN)C(=O)N[C@@H](CCCCNC(=O)CC[C@H](NC(=O)CCCCCCCCCCCCCCCCCCC(=O)O)C(=O)O)C(=O)O)[C@@H](C)O)[C@@H](C)CC)[C@@H](C)O)[C@@H](C)CC [HU020M2] (HELM PEPTIDE1{H.G.E.G.T.F.T.S.D.L.S.T.Y.L.D.A.L.A.A.R.D.F.I.N.W.L.I.Q.T.K.I.T.D.K.K}|PEPTIDE2{[O=C(O)CCCCCCCCCCCCCCCCCCC(=O)[*:2]].[gGlu]}$PEPTIDE1,PEPTIDE2,35:R3-2:R2$$$V2.0; N-terminus and C-terminus assumed)
[3]; [9]
  Tmax: 12 h
  half-life: 15.9 h
GLP-2
  EC50: > 10000 nM
  GLP-2 activity Compared to GLP-2: ~ 0.02%
GLP-1R
  GLP-1 activity Compared to GLP-1 (Exendin-4): 1.5%

## GLP-1
[4]
  half-life (t1/2): < 2 min

## CC[C@H](C)[C@H](NC(=O)[C@H](Cc1ccccc1)NC(=O)[C@H](CC(=O)O)NC(=O)[C@H](CCCNC(=N)N)NC(=O)[C@H](C)NC(=O)[C@H](C)NC(=O)[C@H](CC(C)C)NC(=O)[C@H](C)NC(=O)[C@H](CC(=O)O)NC(=O)[C@H](CC(C)C)NC(=O)[C@H](Cc1ccc(O)cc1)NC(=O)[C@@H](NC(=O)[C@H](CO)NC(=O)[C@H](CC(C)C)NC(=O)[C@H](CC(=O)O)NC(=O)[C@H](CO)NC(=O)[C@@H](NC(=O)[C@H](Cc1ccccc1)NC(=O)[C@@H](NC(=O)CNC(=O)[C@H](CCC(=O)O)NC(=O)C(C)(C)NC(=O)[C@@H](N)Cc1c[nH]cn1)[C@@H](C)O)[C@@H](C)O)[C@@H](C)O)C(=O)N[C@@H](CCCCNC(=O)CC[C@H](NC(=O)CCCCCCCCCCCCCCCCC(=O)O)C(=O)O)C(=O)N[C@@H](Cc1ccccc1)C(=O)N[C@@H](C)C(=O)N[C@@H](Cc1c[nH]c2ccccc12)C(=O)N[C@@H](CC(C)C)C(=O)N[C@H](C(=O)N[C@@H](CCC(N)=O)C(=O)N[C@H](C(=O)N[C@@H](CCCCN)C(=O)N[C@H](C(=O)N[C@H](C(=O)N[C@@H](CC(=O)O)C(=O)O)[C@@H](C)O)[C@@H](C)CC)[C@@H](C)O)[C@@H](C)CC [HU020M7] (HELM PEPTIDE1{H.[Aib].E.G.T.F.T.S.D.L.S.T.Y.L.D.A.L.A.A.R.D.F.I.K.F.A.W.L.I.Q.T.K.I.T.D}|PEPTIDE2{[O=C(O)CCCCCCCCCCCCCCCCC(=O)[*:2]].[gGlu]}$PEPTIDE1,PEPTIDE2,24:R3-2:R2$$$V2.0; N-terminus and C-terminus assumed)
GLP-2
  GLP-2 activity Compared to GLP-2: < 4.0%
GLP-1R
  GLP-1 activity Compared to GLP-1 (Exendin-4): 20.2%

## Semaglutide (peptide)
[5]
  GLP-1 activity, Compared to GLP-1 (Exendin-4): 24.5%

B1: HU020 (peptide)
peptide: HGEGTFTSDLSTYLDALAARDFINWLIQTKITD
[6]
  GLP-1 activity (EC50, pM): 4.15 pM
  GLP-1 activity, Compared to GLP-1 (Exendin-4): 171%
[7]
  EC50, cAMP increase in GLP-1R/CHO cells, average (n=4): 0.0048 nM
  Relative to GLP-1 (Exendin-4) %, cAMP in GLP-1R/CHO cells, average (n=4): 199%

B2: HU020K2FA (peptide)
peptide: HGEGTFTSDLSTYLDALAARDFINWLIQTKITDKK(Palmitoyl)
[6]
  GLP-1 activity (EC50, pM): 30.1 pM
  GLP-1 activity, Compared to GLP-1 (Exendin-4): 23.6%
[7]
  EC50, cAMP increase in GLP-1R/CHO cells, average (n=4): 0.0151 nM
  Relative to GLP-1 (Exendin-4) %, cAMP in GLP-1R/CHO cells, average (n=4): 63.4%
